From IntAct's records for PubMed 21471202

B1: Low-density lipoprotein receptor-related protein 4 (Homo sapiens), O75096 (parent)
chain: MRRQWGALLLGALLCAHGLASSPECACGRSHFTCAVSALGECTCIPAQWQCDGDNDCGDHSDEDGCILPTCSPLDFHCDNGKCIRRSWVCDGDNDCEDDSDEQDCPPRECEEDEFPCQNGYCIRSLWHCDGDNDCGDNSDEQCDMRKCSDKEFRCSDGSCIAEHWYCDGDTDCKDGSDEENCPSAVPAPPCNLEEFQCAYGRCILDIYHCDGDDDCGDWSDESDCSSHQPCRSGEFMCDSGLCINAGWRCDGDADCDDQSDERNCTTSMCTAEQFRCHSGRCVRLSWRCDGEDDCADNSDEENCENTGSPQCALDQFLCWNGRCIGQRKLCNGVNDCGDNSDESPQQNCRPRTGEENCNVNNGGCAQKCQMVRGAVQCTCHTGYRLTEDGHTCQDVNECAEEGYCSQGCTNSEGAFQCWCETGYELRPDRRSCKALGPEPVLLFANRIDIRQVLPHRSEYTLLLNNLENAIALDFHHRRELVFWSDVTLDRILRANLNGSNVEEVVSTGLESPGGLAVDWVHDKLYWTDSGTSRIEVANLDGAHRKVLLWQNLEKPRAIALHPMEGTIYWTDWGNTPRIEASSMDGSGRRIIADTHLFWPNGLTIDYAGRRMYWVDAKHHVIERANLDGSHRKAVISQGLPHPFAITVFEDSLYWTDWHTKSINSANKFTGKNQEIIRNKLHFPMDIHTLHPQRQPAGKNRCGDNNGGCTHLCLPSGQNYTCACPTGFRKISSHACAQSLDKFLLFARRMDIRRISFDTEDLSDDVIPLADVRSAVALDWDSRDDHVYWTDVSTDTISRAKWDGTGQEVVVDTSLESPAGLAIDWVTNKLYWTDAGTDRIEVANTDGSMRTVLIWENLDRPRDIVVEPMGGYMYWTDWGASPKIERAGMDASGRQVIISSNLTWPNGLAIDYGSQRLYWADAGMKTIEFAGLDGSKRKVLIGSQLPHPFGLTLYGERIYWTDWQTKSIQSADRLTGLDRETLQENLENLMDIHVFHRRRPPVSTPCAMENGGCSHLCLRSPNPSGFSCTCPTGINLLSDGKTCSPGMNSFLIFARRIDIRMVSLDIPYFADVVVPINITMKNTIAIGVDPQEGKVYWSDSTLHRISRANLDGSQHEDIITTGLQTTDGLAVDAIGRKVYWTDTGTNRIEVGNLDGSMRKVLVWQNLDSPRAIVLYHEMGFMYWTDWGENAKLERSGMDGSDRAVLINNNLGWPNGLTVDKASSQLLWADAHTERIEAADLNGANRHTLVSPVQHPYGLTLLDSYIYWTDWQTRSIHRADKGTGSNVILVRSNLPGLMDMQAVDRAQPLGFNKCGSRNGGCSHLCLPRPSGFSCACPTGIQLKGDGKTCDPSPETYLLFSSRGSIRRISLDTSDHTDVHVPVPELNNVISLDYDSVDGKVYYTDVFLDVIRRADLNGSNMETVIGRGLKTTDGLAVDWVARNLYWTDTGRNTIEASRLDGSCRKVLINNSLDEPRAIAVFPRKGYLFWTDWGHIAKIERANLDGSERKVLINTDLGWPNGLTLDYDTRRIYWVDAHLDRIESADLNGKLRQVLVSHVSHPFALTQQDRWIYWTDWQTKSIQRVDKYSGRNKETVLANVEGLMDIIVVSPQRQTGTNACGVNNGGCTHLCFARASDFVCACPDEPDSRPCSLVPGLVPPAPRATGMSEKSPVLPNTPPTTLYSSTTRTRTSLEEVEGRCSERDARLGLCARSNDAVPAAPGEGLHISYAIGGLLSILLILVVIAALMLYRHKKSKFTDPGMGNLTYSNPSYRTSTQEVKIEAIPKPAMYNQLCYKKEGGPDHNYTKEKIKIVEGICLLSGDDAEWDDLKQLRSSRGGLLRDHVCMKTDTVSIQASSGSLDDTETEQLLQEEQSECSSVHTAATPERRGSLPDTGWKHERKLSSESQV

Variants of: B1
Settings: with sost_human SOST

Row | Variant | effect of a mutation on the interaction
1 | W1186S | decreasing interaction
2 | R1170W | decreasing interaction
